These results are taken from paper PMC7469880.

The target in this test is FIRΔexon2-FLAG (splice variant of FIR lacking exon 2, FLAG-tagged) (human). The test can be described thus: co-IP.

Turning to “SAP130 (subunit of splicing factor 3b), endogenous in HeLa (from UniProt Q15393 1-1217) (natural protein)”, the amount detected relative to the FIR–FLAG complex (1.0) came out at 0.35.

In turn, “SAP155 (subunit of splicing factor 3b), endogenous in HeLa (from UniProt O75533 1-1304) (natural protein)” yielded an amount detected relative to the FIR–FLAG complex (1.0) of 0.1.
